Data on four molecules can be found in US20260152543A1 (KRIYA THERAPEUTICS, published 2026).

Experiment [1] has as its target C4b (Complement Tech) (UniProt P0C0L4). Kind of experiment: SPR (Biacore 8K), His-tagged receptor captured by anti-His on CM5, C4b analyte 31.25-2000 nM, steady state affinity. On the technique in general: SPR reads the build-up and loss of mass on a sensor chip optically.
Experiment [2] has the same target. Kind of experiment: BLI (GatorPrime), His-tagged protein on Ni-NTA probe, ligand in 7-point dilution series.
Experiment [3] has the same target. Kind of experiment: SPR (Biacore 8K), His-tagged fusion protein captured by anti-His on CM5, C4b analyte 62.5-2000 nM, steady state affinity.
The target is the same in experiment [4]. The experiment is described as follows: BLI (GatorPrime), ratio of KD to that of rhCR1 for C4b.
The target of experiment [5] is T1, iC3b (Complement Tech) (UniProt P01024 23-667; P01024 749-1303; P01024 1321-1663, limits assumed).
T1 construct: iC3b is a multi-chain fragment of C3
T1 sequence (P01024 23-667 limits assumed, chain 1 of 3): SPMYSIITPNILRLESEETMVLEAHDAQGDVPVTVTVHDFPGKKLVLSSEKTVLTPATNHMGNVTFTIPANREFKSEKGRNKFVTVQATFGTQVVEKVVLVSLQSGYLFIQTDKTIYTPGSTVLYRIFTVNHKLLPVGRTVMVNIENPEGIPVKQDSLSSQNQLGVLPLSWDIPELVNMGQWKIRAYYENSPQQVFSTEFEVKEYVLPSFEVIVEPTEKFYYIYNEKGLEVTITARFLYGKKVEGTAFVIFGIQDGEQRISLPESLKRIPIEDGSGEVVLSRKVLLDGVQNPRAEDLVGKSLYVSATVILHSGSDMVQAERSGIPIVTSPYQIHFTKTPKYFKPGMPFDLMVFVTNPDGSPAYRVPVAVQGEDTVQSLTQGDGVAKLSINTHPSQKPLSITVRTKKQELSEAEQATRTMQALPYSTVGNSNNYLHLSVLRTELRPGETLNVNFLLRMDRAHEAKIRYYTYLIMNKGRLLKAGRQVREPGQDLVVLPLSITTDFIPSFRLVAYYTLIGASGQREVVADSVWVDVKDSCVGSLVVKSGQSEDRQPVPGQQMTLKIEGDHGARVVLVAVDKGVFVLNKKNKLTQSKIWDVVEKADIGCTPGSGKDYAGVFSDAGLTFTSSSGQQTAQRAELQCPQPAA
T1 sequence (P01024 749-1303 limits assumed, chain 2 of 3): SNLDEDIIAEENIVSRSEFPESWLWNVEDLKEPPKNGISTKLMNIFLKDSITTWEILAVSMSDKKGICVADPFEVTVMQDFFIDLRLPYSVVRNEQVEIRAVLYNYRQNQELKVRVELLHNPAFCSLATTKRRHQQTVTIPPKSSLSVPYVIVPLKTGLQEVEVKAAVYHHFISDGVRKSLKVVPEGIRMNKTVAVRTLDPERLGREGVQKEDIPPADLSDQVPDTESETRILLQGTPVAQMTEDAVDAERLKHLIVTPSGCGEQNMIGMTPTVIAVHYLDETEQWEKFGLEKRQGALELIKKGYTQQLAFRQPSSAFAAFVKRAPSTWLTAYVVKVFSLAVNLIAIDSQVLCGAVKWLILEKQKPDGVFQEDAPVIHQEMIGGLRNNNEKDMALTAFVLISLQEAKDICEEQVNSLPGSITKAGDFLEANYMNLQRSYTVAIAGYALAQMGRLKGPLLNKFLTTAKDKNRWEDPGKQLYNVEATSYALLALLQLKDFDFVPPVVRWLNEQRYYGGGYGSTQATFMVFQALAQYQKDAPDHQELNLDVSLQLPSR
T1 sequence (P01024 1321-1663 limits assumed, chain 3 of 3): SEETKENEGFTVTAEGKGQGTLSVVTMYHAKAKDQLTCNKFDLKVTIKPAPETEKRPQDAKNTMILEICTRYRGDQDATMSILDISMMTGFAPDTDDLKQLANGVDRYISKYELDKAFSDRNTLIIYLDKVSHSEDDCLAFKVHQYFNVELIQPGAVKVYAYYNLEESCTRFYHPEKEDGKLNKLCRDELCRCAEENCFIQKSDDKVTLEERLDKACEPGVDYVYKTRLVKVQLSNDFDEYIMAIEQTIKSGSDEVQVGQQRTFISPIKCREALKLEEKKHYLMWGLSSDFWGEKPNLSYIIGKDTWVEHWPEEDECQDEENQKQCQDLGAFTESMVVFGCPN
The experiment is described as follows: BLI (GatorPrime), His-tagged protein on Ni-NTA probe, ligand in 7-point dilution series. On the procedure: The binding kinetics of CR2-CR1 fusion proteins, human CR1, and human CR2 to their respective ligands were determined using biolayer interferometry (BLI) with a GatorPrime instrument (Gator Bio). Recombinant His-tagged human CR1 (R&D Systems), human CR2 (R&D Systems), or CR2-CR1 fusion proteins (GenScript) were immobilized onto Ni-NTA probes, and the response signals from the protein-loaded probes binding to C3d, iC3b, C3b, or C4b (Complement Tech) in a 7-point dilution series were measured for a 300 second association step, followed by a 300 second dissociation step in assay buffer. To reduce assay background/noise due to non-specific complement protein binding, a double reference was applied using a 0 nM ligand condition (Sample or Reference Probe Blank) and a series of Ni-NTA probes not loaded with protein (Reference Probe) according to the following equation: Sample Response=(Sample Signal−Reference Probe Signal)−(Sample Blank Signal−Reference Probe Blank Signal). The binding affinity constant, KD, and association/dissociation rate constants, kₒₙ/koff, for all binding interactions were calculated using the GatorOne software (Gator Bio).

Experiment [6] concerns the target T1, iC3b (Complement Tech). The experiment is described as follows: SPR (Biacore 8K), His-tagged receptor captured by anti-His on CM5, iC3b analyte 19.5-1250 nM, steady state affinity. On the procedure: The binding of recombinant human CR1, recombinant human CR2, and recombinant CR2CR1 #1 (SEQ ID NO: 22), and recombinant CR2CR1 #7 (SEQ ID NO: 12) protein to their respective ligands C3b, C4b, iC3b, and/or C3d was analyzed using a Biacore 8K SPR system (Cytiva). Histidine-tagged complement receptors and fusion proteins were immobilized onto Series S Sensor Chip CM5 using a His Antibody Capture Kit, with capture levels of 60-470 RU. C3b, C4b, iC3b, and C3d were prepared in 1×HBS-EP buffer (10 mM HEPES, 150 mM NaCl, 3 mM EDTA, and 0.05% v/v Surfactant P20), pH 7.4, at concentrations ranging from 3-16000 nM, and the analytes were injected at a flow rate of 30 μL/min. Binding at 25° C. was monitored for 150 seconds, followed by a dissociation phase of 300 seconds. Chip sensors were regenerated for 60 seconds with 10 mM glycine-HCl buffer, pH 1.5. The data were processed and analyzed with Biacore Insight Evaluation Software; a 1:1 binding model (C3b analyte) or steady state affinity (C4b, iC3b, C3d analytes) was used to calculate the apparent KD value and other kinetic parameters.

C4b (Complement Tech), sequence (P0C0L4 20-1744): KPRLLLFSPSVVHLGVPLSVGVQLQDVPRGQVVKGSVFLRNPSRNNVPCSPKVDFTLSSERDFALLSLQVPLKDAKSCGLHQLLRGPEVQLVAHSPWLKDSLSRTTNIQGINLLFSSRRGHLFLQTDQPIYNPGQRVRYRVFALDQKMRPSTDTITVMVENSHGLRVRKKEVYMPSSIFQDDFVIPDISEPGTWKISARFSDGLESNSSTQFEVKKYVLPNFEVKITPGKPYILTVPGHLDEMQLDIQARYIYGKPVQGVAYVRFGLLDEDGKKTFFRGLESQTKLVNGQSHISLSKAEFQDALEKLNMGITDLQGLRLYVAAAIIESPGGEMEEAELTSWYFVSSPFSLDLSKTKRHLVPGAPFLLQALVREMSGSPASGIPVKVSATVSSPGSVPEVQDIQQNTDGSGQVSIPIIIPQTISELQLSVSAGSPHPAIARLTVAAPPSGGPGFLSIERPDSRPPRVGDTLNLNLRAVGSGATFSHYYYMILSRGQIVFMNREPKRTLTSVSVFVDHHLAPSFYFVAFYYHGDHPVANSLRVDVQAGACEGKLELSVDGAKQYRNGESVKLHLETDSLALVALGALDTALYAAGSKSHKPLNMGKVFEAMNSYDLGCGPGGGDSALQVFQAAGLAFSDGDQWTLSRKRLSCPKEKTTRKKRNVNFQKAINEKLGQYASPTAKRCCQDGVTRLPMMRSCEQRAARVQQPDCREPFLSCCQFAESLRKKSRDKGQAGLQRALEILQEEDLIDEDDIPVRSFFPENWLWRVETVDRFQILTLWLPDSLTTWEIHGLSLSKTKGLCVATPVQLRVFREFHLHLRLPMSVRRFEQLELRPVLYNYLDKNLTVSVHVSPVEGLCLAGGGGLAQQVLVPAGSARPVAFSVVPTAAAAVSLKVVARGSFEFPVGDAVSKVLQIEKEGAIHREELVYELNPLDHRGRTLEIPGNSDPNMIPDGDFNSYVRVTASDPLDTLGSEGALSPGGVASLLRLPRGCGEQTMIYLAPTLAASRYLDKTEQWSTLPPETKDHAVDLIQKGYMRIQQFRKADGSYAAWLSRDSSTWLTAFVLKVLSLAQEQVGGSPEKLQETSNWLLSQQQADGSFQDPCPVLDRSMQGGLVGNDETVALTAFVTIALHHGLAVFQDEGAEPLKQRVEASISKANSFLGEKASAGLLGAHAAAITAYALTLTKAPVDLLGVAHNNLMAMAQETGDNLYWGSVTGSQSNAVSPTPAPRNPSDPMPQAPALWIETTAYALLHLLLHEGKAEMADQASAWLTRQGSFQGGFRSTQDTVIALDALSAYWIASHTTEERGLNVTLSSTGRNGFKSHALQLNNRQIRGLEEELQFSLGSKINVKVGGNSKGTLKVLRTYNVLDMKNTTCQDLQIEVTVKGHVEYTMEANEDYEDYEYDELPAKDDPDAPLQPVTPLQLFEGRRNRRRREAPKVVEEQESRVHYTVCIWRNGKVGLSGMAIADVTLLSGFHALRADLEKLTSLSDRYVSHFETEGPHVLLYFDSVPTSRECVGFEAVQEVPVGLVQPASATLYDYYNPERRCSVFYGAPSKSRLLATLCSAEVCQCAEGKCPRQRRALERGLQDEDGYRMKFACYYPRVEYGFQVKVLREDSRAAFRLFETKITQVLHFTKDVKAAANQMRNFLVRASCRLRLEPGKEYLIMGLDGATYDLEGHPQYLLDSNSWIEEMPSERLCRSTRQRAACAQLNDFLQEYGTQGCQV

With “Recombinant His-tagged human CR1 (R&D Systems) (from UniProt P17927 42-1971) (receptor)”, the Kd – broadly, a measure of binding affinity in units of concentration – with C4b (Complement Tech) [1] was found to be 3010 nM. For the same molecule, in the experiment with C4b (Complement Tech) [2], the Kd stood at 13.2 nM; the koff (in general, the first-order rate constant of dissociation) was 0.000586 s⁻¹; the on-rate constant (kon) – broadly, the second-order rate constant of association – stood at 44300 M⁻¹ s⁻¹.

As for “recombinant CR2CR1 #1 (CR2-CR1 fusion protein, CR2 SCR1-4 fused to CR1 SCR1-10), His-tagged”, the equilibrium dissociation constant (Kd) in the experiment with C4b (Complement Tech) [3] worked out at 21100 nM. Besides, in the experiment with C4b (Complement Tech) [4], the KD vs. hCR1 KD (X (fold of hCR1 KD)) came out at 0.94. In addition, in the experiment with C4b (Complement Tech) [2], the Kd amounted to 12.4 nM, the koff stood at 0.000694 s⁻¹ and the kon worked out at 56000 M⁻¹ s⁻¹.

For “recombinant CR2CR1 #7 (CR2-CR1 fusion protein, CR2 SCR1-4 fused to CR1 SCR1-4, 7-11, 14-17), His-tagged”, the KD vs. hCR1 KD (X (fold of hCR1 KD)) in the experiment with C4b (Complement Tech) [4] amounted to 0.8. In the experiment with C4b (Complement Tech) [2], this molecule yielded a Kd of 10.5 nM, a dissociation rate constant (koff) of 0.000663 s⁻¹ and an on-rate constant (kon) of 63300 M⁻¹ s⁻¹.

B1: Recombinant His-tagged human CR2 (R&D Systems) (receptor, UniProt P20023 21-971, looked up)
chain: ISCGSPPPILNGRISYYSTPIAVGTVIRYSCSGTFRLIGEKSLLCITKDKVDGTWDKPAPKCEYFNKYSSCPEPIVPGGYKIRGSTPYRHGDSVTFACKTNFSMNGNKSVWCQANNMWGPTRLPTCVSVFPLECPALPMIHNGHHTSENVGSIAPGLSVTYSCESGYLLVGEKIINCLSSGKWSAVPPTCEEARCKSLGRFPNGKVKEPPILRVGVTANFFCDEGYRLQGPPSSRCVIAGQGVAWTKMPVCEEIFCPSPPPILNGRHIGNSLANVSYGSIVTYTCDPDPEEGVNFILIGESTLRCTVDSQKTGTWSGPAPRCELSTSAVQCPHPQILRGRMVSGQKDRYTYNDTVIFACMFGFTLKGSKQIRCNAQGTWEPSAPVCEKECQAPPNILNGQKEDRHMVRFDPGTSIKYSCNPGYVLVGEESIQCTSEGVWTPPVPQCKVAACEATGRQLLTKPQHQFVRPDVNSSCGEGYKLSGSVYQECQGTIPWFMEIRLCKEITCPPPPVIYNGAHTGSSLEDFPYGTTVTYTCNPGPERGVEFSLIGESTIRCTSNDQERGTWSGPAPLCKLSLLAVQCSHVHIANGYKISGKEAPYFYNDTVTFKCYSGFTLKGSSQIRCKADNTWDPEIPVCEKETCQHVRQSLQELPAGSRVELVNTSCQDGYQLTGHAYQMCQDAENGIWFKKIPLCKVIHCHPPPVIVNGKHTGMMAENFLYGNEVSYECDQGFYLLGEKKLQCRSDSKGHGSWSGPSPQCLRSPPVTRCPNPEVKHGYKLNKTHSAYSHNDIVYVDCNPGFIMNGSRVIRCHTDNTWVPGVPTCIKKAFIGCPPPPKTPNGNHTGGNIARFSPGMSILYSCDQGYLLVGEALLLCTHEGTWSQPAPHCKEVNCSSPADMDGIQKGLEPRKMYQYGAVVTLECEDGYMLEGSPQSQCQSDHQWNPPLAVCRSR
notes: Bought protein; also called rhCR2; hCR2; not shown: His tag
With B1, in the experiment with iC3b (Complement Tech) [5], the Kd worked out at 6.51 nM, the koff came to 0.000965 s⁻¹ and the on-rate constant (kon) amounted to 148000 M⁻¹ s⁻¹. This molecule registered a Kd with iC3b (Complement Tech) [6] of 439 nM.
